Among the data in patent publication US20140212436A1 are Fold and Kd values, retold here.

Common to all, as to test: Biacore
Assay [1] concerns the target human H131 FcγRIIa (human) (UniProt P12318).
Another assay deals with FcγRIIaR (human) (UniProt P12318).
Assay [2] concerns the target recombinant human FcγRIIb protein (human) (UniProt P31994).
A further assay concerns the target human FcγRI (human) (UniProt P12314).

pKd: −log10 of the molar value.

human FcγRI (human), sequence (P12314 16-288 limits assumed): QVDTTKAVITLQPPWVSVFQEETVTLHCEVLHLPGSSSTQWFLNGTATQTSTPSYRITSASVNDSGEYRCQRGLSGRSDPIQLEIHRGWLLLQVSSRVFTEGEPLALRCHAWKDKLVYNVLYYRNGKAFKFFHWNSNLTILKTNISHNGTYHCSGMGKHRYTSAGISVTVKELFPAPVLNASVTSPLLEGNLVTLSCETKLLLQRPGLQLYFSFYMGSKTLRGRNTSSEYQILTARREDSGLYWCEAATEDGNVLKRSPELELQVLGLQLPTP
recombinant human FcγRIIb protein (human), sequence (P31994 46-217 limits assumed): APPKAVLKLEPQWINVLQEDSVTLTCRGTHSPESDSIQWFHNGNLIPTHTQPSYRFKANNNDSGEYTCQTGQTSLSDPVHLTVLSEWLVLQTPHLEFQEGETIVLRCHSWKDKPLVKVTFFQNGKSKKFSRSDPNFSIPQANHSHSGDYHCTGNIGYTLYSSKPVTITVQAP
FcγRIIaR (human), sequence (P12318 34-217 H167R limits assumed): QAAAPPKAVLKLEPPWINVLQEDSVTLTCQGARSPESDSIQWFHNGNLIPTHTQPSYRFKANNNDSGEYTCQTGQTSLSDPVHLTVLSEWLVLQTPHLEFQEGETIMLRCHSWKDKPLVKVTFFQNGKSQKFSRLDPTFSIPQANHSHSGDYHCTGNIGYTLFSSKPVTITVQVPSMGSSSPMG
human H131 FcγRIIa (human), sequence (P12318 other isoform, or with tags, fused parts or gaps limits assumed): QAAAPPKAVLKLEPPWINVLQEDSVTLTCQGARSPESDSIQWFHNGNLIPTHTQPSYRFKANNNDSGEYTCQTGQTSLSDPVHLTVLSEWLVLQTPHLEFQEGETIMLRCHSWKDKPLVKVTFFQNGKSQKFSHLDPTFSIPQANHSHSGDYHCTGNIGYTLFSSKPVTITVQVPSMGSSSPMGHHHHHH

As to S267E/L328Y (antibody), the Fold in assay [1] stood at 1.34; with FcγRIIaR (human), 122; in assay [2], 43.1; in the assay with human FcγRI (human) it was 0.224. The pKd was 6.32 in assay [1], 8.15 in the assay with FcγRIIaR (human), 7.47 in assay [2] and 8.83 with human FcγRI (human).

G236D/S239D/S267E (antibody): the Fold in assay [1] was found to be 0.217; with FcγRIIaR (human), 26.7; in assay [2] it was 84.8; with human FcγRI (human), 0.0685. The negative-log Kd (pKd) was 5.53 in assay [1], 7.49 with FcγRIIaR (human), 7.76 in assay [2] and 8.32 with human FcγRI (human).

In the case of L235F/S267E (antibody), the Fold in assay [1] is 0.402; in the assay with FcγRIIaR (human), 32.5; in assay [2], 28.4; with human FcγRI (human), 0.0176. The pKd was 5.79 in assay [1], 7.58 with FcγRIIaR (human), 7.29 in assay [2] and 7.73 with human FcγRI (human).

With G236T (antibody), the Fold stood at 0.486 in assay [1], 0.35 in the assay with FcγRIIaR (human), 0.00225 in assay [2] and 0.0157 in the assay with human FcγRI (human). Also, the negative-log Kd (pKd) in assay [1] was 5.88; in the assay with FcγRIIaR (human), 5.61; in assay [2], 3.19; in the assay with human FcγRI (human) it was 7.68.

With G237N/S267E (antibody), the figures for the Fold (in the assay with FcγRIIaR (human); in assay [2]; in the assay with human FcγRI (human)) were 61.5, 40.5 and 0.101, respectively. The pKd with FcγRIIaR (human) is 7.85; in assay [2], 7.44; with human FcγRI (human) it was 8.49.

G236N/S267E (antibody): the Fold amounted to 3.27 with FcγRIIaR (human), 19.8 in assay [2] and 0.0355 in the assay with human FcγRI (human). In addition, the pKd with FcγRIIaR (human) is 6.58; in assay [2] it was 7.13; with human FcγRI (human), 8.03.

Take L234E/S267E/L328F (antibody): the Fold in assay [1] amounted to 0.0725; with FcγRIIaR (human), 174; in assay [2], 195; with human FcγRI (human) it was 0.0425. The pKd in assay [1] is 5.05; in the assay with FcγRIIaR (human), 8.31; in assay [2], 8.12; with human FcγRI (human), 8.11.

Take S267G (antibody): the pKd in the assay with FcγRIIaR (human) was 6.29; in assay [2] it was 5.84; in the assay with human FcγRI (human), 9.20.

In the assay with FcγRIIaR (human), S239N (antibody) showed a Fold of 0.867 and a pKd of 6.00. Further, in assay [2], the Fold came to 1.45 and the negative-log Kd (pKd) was 5.99.

Turning to L235Y/S267E/L328F (antibody), the Fold in assay [1] came out at 0.758; with FcγRIIaR (human), 171; in assay [2] it was 187; in the assay with human FcγRI (human), 0.00436. The negative-log Kd (pKd) in assay [1] is 6.07; with FcγRIIaR (human), 8.30; in assay [2], 8.11; with human FcγRI (human), 7.12.

Consider A327N (antibody), for which the Fold with FcγRIIaR (human) is 0.609; in assay [2], 0.843; with human FcγRI (human), 0.0279. The pKd with FcγRIIaR (human) was 5.85; in assay [2] it was 5.76; in the assay with human FcγRI (human), 7.93.

Turning to G236M (antibody), in the assay with FcγRIIaR (human), the Fold was 0.0859 and the negative-log Kd (pKd) was 5.00. Further, in assay [2], the Fold was 0.147 and the negative-log Kd (pKd) is 5.00.

Take G236K (antibody): in the assay with FcγRIIaR (human), the Fold worked out at 0.00859 and the negative-log Kd (pKd) was 4.00. In assay [2], the Fold worked out at 0.0147 and the pKd is 4.00.

For the substance S239D/S267E/H268E (antibody), the pKd in assay [1] is 6.09; in assay [2], 8.16; in the assay with human FcγRI (human) it was 9.49.

G237D/S267E (antibody): the Fold with FcγRIIaR (human) is 13.6; in assay [2], 17; with human FcγRI (human), 0.0874. For the same substance, the negative-log Kd (pKd) was 7.20 with FcγRIIaR (human), 7.06 in assay [2] and 8.42 with human FcγRI (human).

Turning to IgG1/2ELLGG_S267E/L328F (antibody), the Fold in assay [1] amounted to 0.993; with FcγRIIaR (human), 269; in assay [2], 221; with human FcγRI (human), 2.35. Further, the negative-log Kd (pKd) in assay [1] is 6.19; with FcγRIIaR (human), 8.50; in assay [2], 8.18; in the assay with human FcγRI (human), 9.85.

For G237E (antibody), the Fold is 0.00859 with FcγRIIaR (human) and 0.0147 in assay [2]. The negative-log Kd (pKd) (in the assay with FcγRIIaR (human); in assay [2]) was 4.00 throughout.

Regarding L235T/S267E (antibody), in the assay with FcγRIIaR (human), the Fold came out at 3.06 and the negative-log Kd (pKd) is 6.55. For the same substance, in assay [2], the Fold is 2.37 and the negative logarithm of the Kd (pKd) was 6.21.

For G236P (antibody), the figures for the Fold (with FcγRIIaR (human); in assay [2]) were 0.0859 and 0.147, respectively. For the same substance, the negative logarithm of the Kd (pKd) (with FcγRIIaR (human); in assay [2]) was 5.00 in each case.

Take L235D/S267E/L328F (antibody): the Fold in assay [1] came out at 0.275; with FcγRIIaR (human) it was 133; in assay [2], 80.4; with human FcγRI (human) it was 0.00057. In addition, the negative logarithm of the Kd (pKd) in assay [1] is 5.63; in the assay with FcγRIIaR (human), 8.19; in assay [2] it was 7.74; in the assay with human FcγRI (human) it was 6.24.

In the assay with FcγRIIaR (human), G236F (antibody) gave a Fold of 0.00859 and a pKd of 4.00. Moreover, in assay [2], the Fold is 0.0147 and the pKd was 4.00.

On to L235H (antibody), for which the Fold in the assay with FcγRIIaR (human) was determined as 0.756; in assay [2], 0.734. For the same substance, the pKd in the assay with FcγRIIaR (human) was 5.94; in assay [2] it was 5.70.

As to G236V (antibody), the values for the Fold (with FcγRIIaR (human); in assay [2]) were 0.106 and 0.0147, respectively. The negative-log Kd (pKd) in the assay with FcγRIIaR (human) was 5.09; in assay [2], 4.00.

As to G236D/S267E/H268E (antibody), the Fold was found to be 0.103 in assay [1], 29.9 in the assay with FcγRIIaR (human), 110 in assay [2] and 0.0902 with human FcγRI (human). In addition, the pKd is 5.20 in assay [1], 7.54 in the assay with FcγRIIaR (human), 7.87 in assay [2] and 8.44 with human FcγRI (human).

G236E/S267E (antibody): the Fold with FcγRIIaR (human) is 36.5; in assay [2], 11.4. Further, the negative logarithm of the Kd (pKd) is 7.63 with FcγRIIaR (human) and 6.89 in assay [2].

Turning to L234K (antibody), in the assay with FcγRIIaR (human), the Fold was found to be 0.00859 and the pKd was 4.00. For the same substance, in assay [2], the Fold was determined as 0.0147 and the negative-log Kd (pKd) is 4.00.

Consider L234E/S267E (antibody), for which the Fold in the assay with FcγRIIaR (human) was 10.7; in assay [2] it was 15.1; in the assay with human FcγRI (human), 0.131. Also, the pKd in the assay with FcγRIIaR (human) was 7.09; in assay [2], 7.01; with human FcγRI (human), 8.60.

For the substance S267E/L328H (antibody), the values for the Fold (in the assay with FcγRIIaR (human); in assay [2]) were 4.64 and 5.17, respectively. Also, the values for the pKd (with FcγRIIaR (human); in assay [2]) were 6.73 and 6.55, respectively.

In the assay with FcγRIIaR (human), G237V (antibody) gave a Fold of 0.0342 and a pKd of 4.60. In assay [2], the Fold was determined as 0.147 and the pKd was 5.00.

In the assay with FcγRIIaR (human), A327Q (antibody) gave a Fold of 0.634 and a pKd of 5.87. Also, in assay [2], the Fold was determined as 0.011 and the pKd was 3.87.

In the case of S267E/L328I (antibody), in the assay with FcγRIIaR (human), the Fold came to 74 and the pKd was 7.94. In assay [2], the Fold turned out to be 53.4 and the pKd is 7.56.

In the assay with FcγRIIaR (human), L234G (antibody) showed a Fold of 0.0859 and a negative logarithm of the Kd (pKd) of 5.00. Besides, in assay [2], the Fold stood at 0.147 and the negative logarithm of the Kd (pKd) was 5.00.

In the assay with FcγRIIaR (human), L234V (antibody) had a Fold of 0.134 and a negative logarithm of the Kd (pKd) of 5.19. Moreover, in assay [2], the Fold worked out at 0.456 and the negative-log Kd (pKd) was 5.49.

G236R (antibody): in the assay with FcγRIIaR (human), the Fold was 0.00859 and the negative logarithm of the Kd (pKd) was 4.00. Further, in assay [2], the Fold is 0.0147 and the pKd is 4.00.

As to L234Q (antibody), in the assay with FcγRIIaR (human), the Fold was found to be 0.0372 and the pKd is 4.64. In assay [2], the Fold was determined as 0.147 and the pKd was 5.00.

Take L234S (antibody): the Fold is 0.693 in the assay with FcγRIIaR (human) and 0.192 in assay [2]. The pKd with FcγRIIaR (human) is 5.91; in assay [2], 5.12.

G237P (antibody): in the assay with FcγRIIaR (human), the Fold was 0.00859 and the pKd is 4.00. Also, in assay [2], the Fold stood at 0.0147 and the pKd was 4.00.

In the assay with FcγRIIaR (human), L234I (antibody) had a Fold of 0.0554 and a negative logarithm of the Kd (pKd) of 4.81. Also, in assay [2], the Fold was 0.108 and the pKd was 4.87.

With G237A (antibody), the Fold stood at 0.704 with FcγRIIaR (human), 0.191 in assay [2] and 0.0108 with human FcγRI (human). Moreover, the pKd in the assay with FcγRIIaR (human) is 5.91; in assay [2], 5.11; in the assay with human FcγRI (human), 7.52.

For L234F (antibody), the Fold with FcγRIIaR (human) amounted to 0.228; in assay [2] it was 0.409; with human FcγRI (human), 0.0362. Moreover, the pKd was 5.42 with FcγRIIaR (human), 5.44 in assay [2] and 8.04 in the assay with human FcγRI (human).

For the substance L235D/S267E (antibody), the figures for the Fold (with FcγRIIaR (human); in assay [2]; in the assay with human FcγRI (human)) were 13, 16.7 and 0.00039, respectively. Further, the pKd was 7.18 in the assay with FcγRIIaR (human), 7.06 in assay [2] and 6.07 with human FcγRI (human).

On to S267E/N325L (antibody), for which the Fold was determined as 41.5 with FcγRIIaR (human) and 31.5 in assay [2]. In addition, the pKd in the assay with FcγRIIaR (human) is 7.68; in assay [2] it was 7.33.

L234W/G236D/S239E/S267E (antibody): in the assay with FcγRIIaR (human), the Fold was found to be 5.69 and the pKd was 6.82. In assay [2], the Fold was determined as 11.4 and the pKd was 6.89.

In the case of G236Q (antibody), in the assay with FcγRIIaR (human), the Fold came to 0.0859 and the pKd was 5.00. In assay [2], the Fold turned out to be 0.147 and the pKd was 5.00.
